Values of other authors in PMC13598549.

Target: TEAD (Homo sapiens) (UniProt P28347)
UniProt P28347, sequence (P28347 whole entry): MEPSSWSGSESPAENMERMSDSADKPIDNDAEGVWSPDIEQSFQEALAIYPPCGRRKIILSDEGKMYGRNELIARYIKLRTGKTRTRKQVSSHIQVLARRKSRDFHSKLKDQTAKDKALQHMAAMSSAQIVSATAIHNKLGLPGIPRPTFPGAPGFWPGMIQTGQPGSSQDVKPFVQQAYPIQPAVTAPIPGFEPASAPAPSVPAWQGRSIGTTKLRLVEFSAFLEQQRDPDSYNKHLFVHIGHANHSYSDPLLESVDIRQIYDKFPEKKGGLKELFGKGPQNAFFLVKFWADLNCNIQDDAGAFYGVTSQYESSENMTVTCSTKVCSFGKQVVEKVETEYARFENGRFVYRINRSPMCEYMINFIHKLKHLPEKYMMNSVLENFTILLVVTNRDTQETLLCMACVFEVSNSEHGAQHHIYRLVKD

YAP (from UniProt P46937)
Kd: 0.04 µM
